Molecular target: the molecule itself
Assay: SEC; HiLoad 16/600 Superdex 200, Tris buffer (50 mM, pH 8.0, 150 mM NaCl), calibrated with proteins of known mass; final purification step

Protein	stoichiometry N
Human glutathione transferase A4-4 (hGST A4-4) (enzyme, UniProt O15217 1-222, looked up, Human glutathione transferase A4 (alpha class), ORF of GenBank Y13047.1; Homodimer; Expressed as a C-terminal fusion to His-tagged Trx1 with a TEV site in between; the fusion partner was cut off; the printed mass (25,761 Da) may include such a remnant (surmise); source: E. coli BL21(DE3), pET-Trx1b, purified (GSH-Sepharose, TEV cleavage, HisTrap flow through, SEC); not shown: His tag, N-terminal, …) MAARPKLHYPNGRGRMESVRWVLAAAGVEFDEEFLETKEQLYKLQDGNHLLFQQVPMVEIDGMKLVQTRSILHYIADKHNLFGKNLKERTLIDMYVEGTLDLLELLIMHPFLKPDDQQKEVVNMAQKAIIRYFPVFEKILRGHGQSFLVGNQLSLADVILLQTILALEEKIPNILSAFPFLQEYTVKLSNIPTIKRFLEPGSKKKPPPDEIYVRTVYNIFRP	2
Human glutathione transferase M1-1 (hGST M1-1) (enzyme, UniProt P09488 1-218, looked up, Human glutathione transferase M1 (mu class), ORF of GenBank X08020.1; purified without tags; Homodimer; In the crystal it carries the small-molecule adduct GS-10-NO2-OA in the active site; source: E. coli BL21(DE3), pET22b, purified (GSH-Sepharose, SEC)) MPMILGYWDIRGLAHAIRLLLEYTDSSYEEKKYTMGDAPDYDRSQWLNEKFKLGLDFPNLPYLIDGAHKITQSNAILCYIARKHNLCGETEEEKIRVDILENQTMDNHMQLGMICYNPEFEKLKPKYLEELPEKLKLYSEFLGKRPWFAGNKITFVDFLVYDVLDLHRIFEPKCLDAFPNLKDFISRFEGLEKISAYMKSSRFLPRPVFSKMAVWGNK	2
